The record followed here is PMC4670726, “Systematic discovery of linear binding motifs targeting an ancient protein interaction surface on MAP kinases” (Molecular Systems Biology, 2015).

Ends that are not written are not given here.

For test [1], the target named is T1, p38α (as used in the fluorescence polarization titrations) (human, UniProt Q16539 1-360).
T1 construct: p38α; the FP methods say only 'MAPKs'
Nature of the test: fluorescence polarisation; competition: 50 nM N-terminally labeled reporter peptide mixed with MAPK at ~60–80% complex formation, increasing amounts of unlabeled synthetic test peptide added; 384-well plates, triplicates; Ki from a competition binding equation. As to conditions: both partners purified. Background: Fluorescence polarisation rises when a labelled molecule tumbles more slowly, as on binding a larger partner.

In test [2] the target is T2, ERK2 (as used in the fluorescence polarization titrations) (human, UniProt P28482 1-360).
T2 construct: ERK2; the FP methods say only 'MAPKs'
T2 sequence (P28482 whole entry): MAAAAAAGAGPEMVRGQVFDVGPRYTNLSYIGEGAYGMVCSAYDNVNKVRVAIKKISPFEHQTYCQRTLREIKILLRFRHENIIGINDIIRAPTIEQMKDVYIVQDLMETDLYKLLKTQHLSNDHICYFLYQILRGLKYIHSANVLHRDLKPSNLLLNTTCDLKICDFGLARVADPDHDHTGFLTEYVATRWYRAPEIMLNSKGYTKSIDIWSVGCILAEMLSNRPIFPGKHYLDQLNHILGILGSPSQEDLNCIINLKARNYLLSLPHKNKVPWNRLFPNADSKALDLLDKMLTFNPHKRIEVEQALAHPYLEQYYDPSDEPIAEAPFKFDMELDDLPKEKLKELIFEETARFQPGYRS
The test is described as above. To be noted: both partners purified.

T1 sequence (Q16539 whole entry): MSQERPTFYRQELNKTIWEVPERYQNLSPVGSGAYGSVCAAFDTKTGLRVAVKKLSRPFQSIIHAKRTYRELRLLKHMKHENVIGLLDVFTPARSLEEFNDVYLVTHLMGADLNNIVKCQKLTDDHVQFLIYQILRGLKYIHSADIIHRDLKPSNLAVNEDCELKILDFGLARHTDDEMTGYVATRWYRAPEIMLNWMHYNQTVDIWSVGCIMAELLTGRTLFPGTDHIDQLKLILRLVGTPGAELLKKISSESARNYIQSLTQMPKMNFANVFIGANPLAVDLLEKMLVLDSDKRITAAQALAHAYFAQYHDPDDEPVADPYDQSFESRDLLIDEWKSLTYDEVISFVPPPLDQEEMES

B1: pepMK2, labeled reporter peptide (peptide)
peptide: IKIKKIEDASNPLLLKRRKK
modifications: also: N-terminally labeled with carboxyfluorescein or carboxytetramethylrhodamine
notes: docking peptide of MK2; source: synthetic peptide
Turning to B1, the binding result in test [1] is given as “binds”.

B2: pepMEF2A, labeled reporter peptide (peptide)
peptide: SRKPDLRVVIPPS
modifications: also: N-terminally labeled with carboxyfluorescein or carboxytetramethylrhodamine
notes: docking peptide of MEF2A; source: synthetic peptide
In the case of B2, the binding result in test [1] was “binds”.

B3: pepRSK1, labeled reporter peptide (peptide)
peptide: PQLKPIESSILAQRRVRKLPSTTL
modifications: also: N-terminal label: carboxyfluorescein or carboxytetramethylrhodamine
notes: docking peptide of RSK1; source: synthetic peptide
Regarding B3, the binding result in test [2] is recorded as “binds”.
